In patent US11033620B2, “Combination therapies targeting tumor-associated stroma or tumor cells and microtubules” (BIOMED VALLEY DISCOVERIES, INC., priority 2014, dated 2021):

Tested on: H460 cells
Test: Efficacy of M830 in the H460 non-small cell lung carcinoma xenograft model
Format: in vivo, mouse
Settings: combination partner Paclitaxel
Method: Animals were monitored for regression responses.
The statistical tests were not adjusted for multiple comparisons.
Cultured H460 cells were harvested during exponential growth and resuspended in phosphate buffered saline at a concentration of 1×10^8 cells/mL. 1.0×10^7 tumor cells were injected subcutaneously into the flank of athymic nude mice. Animals were euthanized when tumors reached the pre-determined volume endpoint of 2000 mm^3 or on the final day (Day 88), whichever came first.

B1: M830: TEM8 monoclonal antibody (hIgG1), VH SEQ ID NO:5, VL SEQ ID NO:6 (antibody, V domains shown)
VH: EVQLVESGGGVVQPGRSVRLSCAASGFTFSTYTMHWVRQAPGKGLEWVAIISNDGSNKYYADPVRGRFTISRDNSKNTLYLQMNSLRAEDTAVYYCVRGSSWYRGNWFDPWGQGTLVTVSS
VL: DIQMTQSPSSLSASVGDRVTIACRASQTISRYLNWYQQKPGKAPKLLIYAASSLQSGVSSRFSGSGSGTEFTLTISSLQPEDFATYFCQQTYSPPITFGQGTRLEIKR
modifications: TEM830 mAb VH; TEM830 mAb VL
regression (in % Tumor Reduction vs. Vehicle at Day 21 cell): −61%
